Experimental data reported in patent US20170342144A1 (Sanofi, published 2017).

T1: human TGFβ3 (human, UniProt P10600 301-412)
T1 sequence: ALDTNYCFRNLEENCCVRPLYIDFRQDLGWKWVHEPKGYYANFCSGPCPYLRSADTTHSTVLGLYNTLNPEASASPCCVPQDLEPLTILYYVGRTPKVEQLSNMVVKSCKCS

T2: human TGFβ2 (human, UniProt P61812 303-414)
T2 construct: also called TGFβ2 homodimer
T2 sequence: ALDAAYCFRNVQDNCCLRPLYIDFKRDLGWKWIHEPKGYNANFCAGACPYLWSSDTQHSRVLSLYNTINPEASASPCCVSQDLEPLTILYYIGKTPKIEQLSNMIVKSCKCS


Legend:
human TGFβ3 [1] = molecular target: T1, human TGFβ3; experiment: Biacore off-rate vs wt GC1008, 50 nM
Summary of the method: (§1)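 Surface plasmon resonance on a Biacore 3000 measured how fast purified antibody variants dissociated from TGFβ isoforms immobilized at about 100 RU. Variants carried single heavy- or light-chain substitutions and were produced by transient Expi293F transfection with Protein A cleanup. Samples at 50 nM were tested in duplicate, and each variant kd was divided by the wild-type control kd to give fold change.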

human TGFβ2 [2] = molecular target: T2, human TGFβ2; experiment: Biacore off-rate vs wt GC1008, 50 nM
Summary of the method: as §1

human TGFβ1 [3] = molecular target: T3, human TGFβ1 (human, UniProt P01137 279-390); experiment: Biacore off-rate vs wt GC1008, 50 nM
T3 construct: also called TGFβ1 homodimer
Summary of the method: as §1

human TGFβ3 [4] = molecular target: T1, human TGFβ3; experiment: Biacore, 3.33-90 nM, 1:1 global fit, vs wt GC1008
Description: (§2) In FIG. 6C, seventeen mutants were selected and scaled up to produce sufficient amount of purified protein for KD (equilibrium constant=kd/ka) analysis by Biacore. Multiple concentrations (90, 30, 10 and 3.33 nM) were used in duplicate on the 150 RU level TGFβ1, 2, and 3 immobilized surfaces. KD was calculated using global curve fitting analysis for a 1-to-1 Langmuir binding model. The experimental data from all four concentrations were used for calculation except for I54N and I54R mutants, where only the top 2 concentrations were used. The fold changes in KD were compared to the fold changes in kd (off rate) presented in FIG. 6B, and a heat map was generated for visualization. Similar fold changes were observed from the two data sets, confirming the validity of using kd as a parameter for screening of 155 single mutants as shown in FIG. 6B.

human TGFβ2 [5] = molecular target: T2, human TGFβ2; experiment: Biacore, 3.33-90 nM, 1:1 global fit, vs wt GC1008
Description: as §2

human TGFβ1 [6] = molecular target: T3, human TGFβ1; experiment: Biacore, 3.33-90 nM, 1:1 global fit, vs wt GC1008
Description: as §2

human TGFβ3 [7] = molecular target: T1, human TGFβ3; experiment: Biacore off-rate vs wt GC1008
Source text: (§3) Plasmids encoding either the GC1008 heavy chain or light chain were used as a template in PCR-based mutagenesis reactions. Mutations to the encoding DNA were made to create 155 single amino acid substitutions of the encoded heavy chain amino acid sequence and one single amino acid substitution of the encoded light chain amino acid sequence. A QuikChange® Lightning Site-Directed Mutagenesis kit (Agilent Technologies, Santa Clara Calif.) was used according to the manufacturer's instructions to create DNA mutations using a set of forward and reverse primers, either designed for a specific amino acid or for all 20 amino acids with a degenerate codon (NNK). After sequencing confirmation, identified mutant DNA was paired with a wild-type light or heavy chain DNA for transfection into an Expi293F™ host cell suspension (Life Techonologies Corp., Grand Island, N.Y.). At 4 days post-transfection, conditioned media (1 mL) was harvested and purified using a 1 mL Protein A PhyTip® column (PhyNexus, Inc., San Jose, Calif.) and a PureSpeed™ 12-channel pipette (Rainin Instrument LLC, Oakland, Calif.). Purified variant antibody samples were analyzed in duplicate on a Biacore® 3000 (GE Healthcare) at 50 nM concentrations, using the 100 RU level TGFβ1, 2, and 3 immobilized surfaces. The off-rate (kd) of the variants was divided by the kd of the wild-type control to obtain the fold change in the kd. […] A heat map was generated to visualize the results. Variants that completely lost affinity for TGFβ were shown in red without numbers.

human TGFβ2 [8] = molecular target: T2, human TGFβ2; experiment: Biacore off-rate vs wt GC1008
Source text: as §3

human TGFβ1 [9] = molecular target: T3, human TGFβ1; experiment: Biacore off-rate vs wt GC1008
Source text: as §3

T3 sequence (P01137 279-390 limits assumed): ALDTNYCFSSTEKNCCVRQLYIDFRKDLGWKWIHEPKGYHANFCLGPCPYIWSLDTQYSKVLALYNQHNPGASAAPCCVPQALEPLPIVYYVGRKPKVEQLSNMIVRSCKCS

kd var/kd wt (human TGFβ3 [1]) | kd var/kd wt (human TGFβ2 [2]) | kd var/kd wt (human TGFβ1 [3]) | KD mutant/KD wt (human TGFβ3 [4]) | KD mutant/KD wt (human TGFβ2 [5]) | KD mutant/KD wt (human TGFβ1 [6]) | kd mutant/kd wt (human TGFβ3 [7]) | kd mutant/kd wt (human TGFβ2 [8]) | kd mutant/kd wt (human TGFβ1 [9]) | Binder
1.2 | 0.7 | 1.3 | 1.2 | 0.6 | 1.3 | 1.2 | 0.7 | 1.3 | I54F (antibody, V domains shown, GC1008 IgG4 variant) VH: QVQLVQSGAEVKKPGSSVKVSCKASGYTFSSNVISWVRQAPGQGLEWMGGVIPFVDIANYAQRFKGRVTITADESTSTTYMELSSLRSEDTAVYYCASTLGLVLDAMDYWGQGTLVTVSS VL: ETVLTQSPGTLSLSPGERATLSCRASQSLGSSYLAWYQQKPGQAPRLLIYGASSRAPGIPDRFSGSGSGTDFTLTISRLEPEDFAVYYCQQYADSPITFGQGTRLEIK
1.4 | 1.4 | 1.5 | 1.1 | 1.3 | 1.2 | 1.4 | 1.4 | 1.5 | Y27H (antibody, V domains shown, GC1008 IgG4 variant) VH: QVQLVQSGAEVKKPGSSVKVSCKASGHTFSSNVISWVRQAPGQGLEWMGGVIPIVDIANYAQRFKGRVTITADESTSTTYMELSSLRSEDTAVYYCASTLGLVLDAMDYWGQGTLVTVSS VL: ETVLTQSPGTLSLSPGERATLSCRASQSLGSSYLAWYQQKPGQAPRLLIYGASSRAPGIPDRFSGSGSGTDFTLTISRLEPEDFAVYYCQQYADSPITFGQGTRLEIK
1.1 | 1.4 | 1.2 | 0.8 | 1.6 | 1.5 | 1.1 | 1.4 | 1.2 | S30E (antibody, V domains shown, GC1008 IgG4 variant) VH: QVQLVQSGAEVKKPGSSVKVSCKASGYTFESNVISWVRQAPGQGLEWMGGVIPIVDIANYAQRFKGRVTITADESTSTTYMELSSLRSEDTAVYYCASTLGLVLDAMDYWGQGTLVTVSS VL: ETVLTQSPGTLSLSPGERATLSCRASQSLGSSYLAWYQQKPGQAPRLLIYGASSRAPGIPDRFSGSGSGTDFTLTISRLEPEDFAVYYCQQYADSPITFGQGTRLEIK
1.7 | 1.3 | 2.1 | 3.2 | 2.1 | 2.1 | 1.7 | 1.3 | 2.1 | I54T (antibody, V domains shown, GC1008 IgG4 variant) VH: QVQLVQSGAEVKKPGSSVKVSCKASGYTFSSNVISWVRQAPGQGLEWMGGVIPTVDIANYAQRFKGRVTITADESTSTTYMELSSLRSEDTAVYYCASTLGLVLDAMDYWGQGTLVTVSS VL: ETVLTQSPGTLSLSPGERATLSCRASQSLGSSYLAWYQQKPGQAPRLLIYGASSRAPGIPDRFSGSGSGTDFTLTISRLEPEDFAVYYCQQYADSPITFGQGTRLEIK
1.2 | 0.9 | 1.2 | 0.8 | 0.6 | 1 | 1.2 | 0.9 | 1.2 | V55F (antibody, V domains shown, GC1008 IgG4 variant) VH: QVQLVQSGAEVKKPGSSVKVSCKASGYTFSSNVISWVRQAPGQGLEWMGGVIPIFDIANYAQRFKGRVTITADESTSTTYMELSSLRSEDTAVYYCASTLGLVLDAMDYWGQGTLVTVSS VL: ETVLTQSPGTLSLSPGERATLSCRASQSLGSSYLAWYQQKPGQAPRLLIYGASSRAPGIPDRFSGSGSGTDFTLTISRLEPEDFAVYYCQQYADSPITFGQGTRLEIK
1.7 | 1.2 | 2 | 3.1 | 1.4 | 1.7 | 1.7 | 1.2 | 2 | I54W (antibody, V domains shown, GC1008 IgG4 variant) VH: QVQLVQSGAEVKKPGSSVKVSCKASGYTFSSNVISWVRQAPGQGLEWMGGVIPWVDIANYAQRFKGRVTITADESTSTTYMELSSLRSEDTAVYYCASTLGLVLDAMDYWGQGTLVTVSS VL: ETVLTQSPGTLSLSPGERATLSCRASQSLGSSYLAWYQQKPGQAPRLLIYGASSRAPGIPDRFSGSGSGTDFTLTISRLEPEDFAVYYCQQYADSPITFGQGTRLEIK

Continued, binder first:

Binder | kd var/kd wt (human TGFβ3 [1]) | kd var/kd wt (human TGFβ2 [2]) | kd var/kd wt (human TGFβ1 [3]) | KD mutant/KD wt (human TGFβ3 [4]) | KD mutant/KD wt (human TGFβ2 [5]) | KD mutant/KD wt (human TGFβ1 [6]) | kd mutant/kd wt (human TGFβ3 [7]) | kd mutant/kd wt (human TGFβ2 [8]) | kd mutant/kd wt (human TGFβ1 [9])
N32K (antibody, V domains shown, GC1008 IgG4 variant) VH: QVQLVQSGAEVKKPGSSVKVSCKASGYTFSSKVISWVRQAPGQGLEWMGGVIPIVDIANYAQRFKGRVTITADESTSTTYMELSSLRSEDTAVYYCASTLGLVLDAMDYWGQGTLVTVSS VL: ETVLTQSPGTLSLSPGERATLSCRASQSLGSSYLAWYQQKPGQAPRLLIYGASSRAPGIPDRFSGSGSGTDFTLTISRLEPEDFAVYYCQQYADSPITFGQGTRLEIK | 1.8 | 1.4 | 2.7 | 3.7 | 2.6 | 4 | 1.8 | 1.4 | 2.7
S31W (antibody, V domains shown, GC1008 IgG4 variant) VH: QVQLVQSGAEVKKPGSSVKVSCKASGYTFSWNVISWVRQAPGQGLEWMGGVIPIVDIANYAQRFKGRVTITADESTSTTYMELSSLRSEDTAVYYCASTLGLVLDAMDYWGQGTLVTVSS VL: ETVLTQSPGTLSLSPGERATLSCRASQSLGSSYLAWYQQKPGQAPRLLIYGASSRAPGIPDRFSGSGSGTDFTLTISRLEPEDFAVYYCQQYADSPITFGQGTRLEIK | 1.6 | 1.4 | 1.7 | 1.3 | 1.3 | 1.3 | 1.6 | 1.4 | 1.7
N32E (antibody, V domains shown, GC1008 IgG4 variant) VH: QVQLVQSGAEVKKPGSSVKVSCKASGYTFSSEVISWVRQAPGQGLEWMGGVIPIVDIANYAQRFKGRVTITADESTSTTYMELSSLRSEDTAVYYCASTLGLVLDAMDYWGQGTLVTVSS VL: ETVLTQSPGTLSLSPGERATLSCRASQSLGSSYLAWYQQKPGQAPRLLIYGASSRAPGIPDRFSGSGSGTDFTLTISRLEPEDFAVYYCQQYADSPITFGQGTRLEIK | 0.7 | 0.8 | 0.6 | 1 | 0.8 | 1 | 0.7 | 0.8 | 0.6
S30W (antibody, V domains shown, GC1008 IgG4 variant) VH: QVQLVQSGAEVKKPGSSVKVSCKASGYTFWSNVISWVRQAPGQGLEWMGGVIPIVDIANYAQRFKGRVTITADESTSTTYMELSSLRSEDTAVYYCASTLGLVLDAMDYWGQGTLVTVSS VL: ETVLTQSPGTLSLSPGERATLSCRASQSLGSSYLAWYQQKPGQAPRLLIYGASSRAPGIPDRFSGSGSGTDFTLTISRLEPEDFAVYYCQQYADSPITFGQGTRLEIK | 0.3 | 0.4 | 0.7 | 0.3 | 0.4 | 0.7 | 0.3 | 0.4 | 0.7
